assay: label from the status in PepcDB records

**Q.** Which protein production does the source give for “MKLKWWQRLLPRSAFSQTVLLIGCLLLINQLVSYVTVAVYVLKPSYQQINQLIARQINLLFVDGIDIGREHLTIVDALNAKVRDDGMKVYNQQQAREAGIEQATYYGFWSSQMTEYLGGDAEVRVTHGRVLQVWIRPPQAPSVWIKVPLIGQNVSDLSPLTLYLMVIGALSVAGGWWFARQQNRPLRRLQKAAISVSRGEFPDPLPLKGSSELVEVTNAFNQMAHSMKQLEQDRALLMAGISHDLRTPLTRIRLASEMMVEDDQYLKDGIVNDIEDMDAIISQFIAYIRQDQEASREPGQINKLIQDIAQAEANRDGEIELALADCPEALFQGLAIKRVLSNLVENAFRYGSGWVRISSQFDGKRIGFSVEDNGPGIDESQIPTLFQPFTQGDIARGSVGSGLGLAIIKRIIDRHQGQITLSNRAAGGLKAQVWLPRE” here?
**A.** Its protein production is “failed”.

**Q.** With “MKLLIISDGHGDLEKLKKIKPVADGVDALIFGGDFAAFKKIETGAPFLNELLKIHKNIFAVLGNCDEPEFEKKLKDASVSITGEVKNFEGLIFAGSGGGSKFTGTTPYERTDEELVKDLTDAFEKANITAAGNLVLVCHNPPHGAKVDKVAPMVHVGSKGITAFIEKHKPLLVVSGHIHESFAVDKIGETVLVNPGALMEGRYALAEITKNEKGFKVSVELKTLD” as the sequence, how does the protein production read?
**A.** The protein production was “failed”.

**Q.** With “MKLPRFGVEEWLNVHENSAIYDIAGVSISSLTLEELFALSGTNPEDFYKKLQGTKLNYGWIEGSPAFKKSVSQLYTGVKPEQILQTNGATGANLLVLYSLIEPGDHVISLYPTYQQLYDIPKSLGAEVDLWQIEEENGWLPDLEKLRQLIRPTTKMICINNANNPTGAVMDRTYLEELVEIASEVGAYILSDEVYRSFSELDVPSIIEVYDKGIAVNSLSKTYSLPGIRIGWVAANHQVTDILRDYRDYTMICAGVFDDLVAQLALAHYQEILERNRHILEENLAILDQWIEEEPLVSYIRPAVVSTSFVKIAVDMPMEDFCLQLLQEHGVLLVPGNRFERDGYVRLGFACEQETLIKGLEKLSQFLRRFDKEN” as the sequence, how does the protein production read?
**A.** The protein production was “not failed”.

**Q.** With “MKLPRLWPTALSLLCSLALAQAPASPGTTAQGPAPAAVAGLAALPGGTRLVCAGTSLWTLSTSAAPQRLPLPEDCQGLRVSPSGKVVLVSGRASVTVWRLDAEQQSDGQLWRRVALPEPARRVAFLNDSTLLLAGARGLEQLDLNTQARTLLRPGAVTGLATAPDGRRAVMGDGSRVQLVNVADGAVLSGVRCEVACPLQDVQFSRDQRGAVVQAGPVLYALREGHPATAVLRGAEGAMGFPLPDGGVWVLTAGRLERRDAQTGRREGVLRPEGVSGPAAWTPEGGLLYVAGRELVELDKTGQEVGRTALP” as the sequence, how does the protein production read?
**A.** Its protein production is “failed”.

**Q.** With “MKLRSWEFYDRIARAYDSMYETPKWKLYHRLIGSFLEEYLKNPCRVLDLGGGTGKWSLFLQERGFEVVLVDPSKEMLEVAREKGVKNVVEAKAEDLPFPSGAFEAVLALGDVLSYVENKDKAFSEIRRVLVPDGLLIATVDNFYTFLQQMIEKDAWDQITRFLKTQTTSVGTTLFSFNSYAFKPEDLDSLEGFETVDIRGIGVMEYPDERISEREETIFRLEQELSRDRNIIWKADHIFFVLKKKRGA” as the sequence, how does the protein production read?
**A.** The protein production was “not failed”.

**Q.** For “MKLSQQSQAIIESAIQKAINKYTCGCEQTIVTDIHIQPNQNSGELFIYDDEDEELSSVTIDEWTAYEGDDFCEDAERIFRTVLCRMKENGSFDKLTILKPYSFVLVDEDKETISELLLVDDDTLLVNDELLKGLDKELDDFLKDLLEKLEHHHHHH”, which protein production is on record?
**A.** The protein production was “not failed”.

**Q.** With “MKLVICIVQDDDAGELIDVLTDKGLRVTKLATTGGFLKAGNTTLMIGVEEKAVDGVIETIEDVCKTRQQVVTSPSPVAGSTGVYVPYPIDVEVGGATIFVVDVDKFIKI” as the sequence, how does the protein production read?
**A.** The protein production was “failed”.

**Q.** For “MKMEELFKKHKIVAVLRANSVEEAKEKALAVFEGGVHLIEITFTVPDADTVIKELSFLKEKGAIIGAGTVTSVEQCRKAVESGAEFIVSPHLDEEISQFCKEKGVFYMPGVMTPTELVKAMKLGHTILKLFPGEVVGPQFVKAMKGPFPNVKFVPTGGVNLDNVCEWFKAGVLAVGVGSALVKGTPDEVREKAKAFVEKIRGCTE”, which protein production is on record?
**A.** The protein production was “not failed”.

**Q.** With “MKMGMVFVFVLLTVFMAVMSSTRVSAQSNCKNELKKSLKPCFSYLTSSYPSLPDDSDCCPSLLDISKTSVDCFCQYLNSGGSILDINANFIQARRLPEICGVDPYLASVCNEGKNFLTSIYEETPIL” as the sequence, how does the protein production read?
**A.** Its protein production is “failed”.

Reference: a protein production outcome set (Wang et al. 2014)
